Experimental data reported in US20040038369A1, “Airway-specific trypsin-like enzymes and method of using the same” (priority 2000, published 2004).

How the values were obtained:
PAR-2 = biological target: T1, PAR-2 (Homo sapiens, UniProt P55085); experiment: Calcium influx in PAR-2-expressing insect cells; assay type: cell-based; details: AST 2 units/mL; trypsin, thrombin 0.1 to 10 units/mL; SFLLRNamide, SLIGRL 10 to 100 μM
T1 construct: expressed in transfected cells; host or cells: Sf9 insect cells infected with recombinant baculovirus VL-PAR (pVL1393)
T1 sequence (P55085 26-397): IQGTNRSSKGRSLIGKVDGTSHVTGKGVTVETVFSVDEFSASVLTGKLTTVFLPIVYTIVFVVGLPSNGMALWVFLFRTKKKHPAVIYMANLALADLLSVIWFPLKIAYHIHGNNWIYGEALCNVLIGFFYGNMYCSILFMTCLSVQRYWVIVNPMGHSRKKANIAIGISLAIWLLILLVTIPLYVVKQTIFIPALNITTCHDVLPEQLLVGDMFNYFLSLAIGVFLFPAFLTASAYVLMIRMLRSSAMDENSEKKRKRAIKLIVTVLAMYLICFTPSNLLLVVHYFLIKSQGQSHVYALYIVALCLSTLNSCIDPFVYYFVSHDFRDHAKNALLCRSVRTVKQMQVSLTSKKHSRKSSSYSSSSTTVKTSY
Method: The above-obtained recombinant baculovirus VL-PAR for expressing the PAR was used to infect 1.0×10^7 Sf9 cells sowed on a 75 cm^2 flask at an MOI=2, and was then left and stationally cultured at 27° C. for 40 hours. After the culture, the infected cells were recovered and then subjected to a calcium influx experiment to-confirm the function of the PAR.
The recovered infected cells (about 5×10^6 cells) were once washed with HEPES-Tyrode buffer solution-Ca^2+ (−) pH 7.4, and then suspended in 5 mL of HEPES-Tyrode buffer solution (containing Fura2-AM, 1 μg/mL) to load the Fura2-AM on the cells at 27° C. for 30 minutes. The suspension was centrifuged at 800 rpm at room temperature for 5 minutes to recover the cells. The cells were twice washed with HEPES-Tyrode buffer solution-Ca^2+ (−) pH 7.4 and then resuspended in 5 mL of HEPES-Tyrode buffer solution-Ca^2+ (−) pH 7.4. The cell suspension was mixed with 5 μL of 1M CaCl2 to give a final concentration of 1 mM CaCl2, and then incubated in a shaded state at room temperature for 5 minutes. The prepared Fura2-AM-loaded infected cells were dispensed into a 96 well plate in a volume of 100 μL/well, further subjected to the dispensation of HEPES-Tyrode buffer solution-C^2+ (+) pH 7.4 in a volume of 80 μL/well, and then assayed with a Fluorescence Drug Screening System (made by Hamamatsu Photonics Co.). Namely, [intensity of 500 nm fluorescent light due to 340 nm exciting light]/[intensity of 500 nm fluorescent light due to 380 nm exciting light] (reflecting the concentration of calcium in the cells) was assayed.

EGFR = experiment: Tyrosine phosphorylation of EGFR in NCI-H292 cells; assay type: cell-based, human; details: HAST 0.3 U/mL, 30 to 240 minutes
Method: NCI-H292 cells (purchased from ATCC) were suspended in 10% FCS-containing RPMI-1640 (produced by Gibco Corp.) and then sowed on a 12 well plate (made by Falcon Corp.) in a density of 6.0×10^4 cells/cm^2. The cells were cultured for 72 hours, subjected to the replacement of the culture medium by 0.1% BSA-containing RPMI-1640, and further cultured for 24 hours.
On the day of the treatment, the culture solution of the wells was replaced by RPMI-1640 (containing 0.1% BSA) containing HAST (0.3 U/mL), EGF (1 μg/mL), and the treatments were carried out for 30, 60, 120, 180, 240 minutes, respectively.
The cells treated with the HAST or the EGF for the prescribed time were twice washed with ice-cooled PBS, mixed with 500 μL of an ice-cooled Lysis buffer solution (50 mM Tris-HCl, pH 7.4, 5 mM EDTA, 1% Triton X-100 (Sigma), 150 mM NaCl, 10% glycerol, 1% Protease inhibitor Cocktail (Sigma), 1% Phosphatase Inhibitor Cocktail (Sigma)), allowed to stand on ice for 15 minutes, and then recovered in a micro tube. The recovered product in the micro tube was centrifuged at 15,000 rpm at 4° C. for 10 minutes, and the supernatant was recovered as a sample. The protein concentration of the sample was assayed with BioRad Protein Assay (produced by Bio Rad Corp.), and properly diluted with the Lysis buffer solution so that the protein concentrations in all the samples become 1.48 mg/mL. […]

HAST: human airway-specific trypsin-like enzyme; propeptide moiety bound to trypsin-like protein moiety via a disulfide bond
Ca2+ influx (PAR-2): observed | tyrosine phosphorylation of EGFR (EGFR): activated EGFR
